From publication PMC3907290, “De Novo Prediction of PTBP1 Binding and Splicing Targets Reveals Unexpected Features of Its RNA Recognition and Function” come the findings set out here.

The target in this data set is PTBP1 (Homo sapiens, UniProt P26599 1-557). The experiment in a line: EMSA; apparent Kd; tRNA competitor; EMSA, 10 uL: 6 uL DG buffer (20 mM Hepes-KOH pH 7.9, 20% glycerol, 80 mM K-glutamate, 0.2 mM EDTA, 0.2 mM PMSF), about 2.2 mM MgCl2, 0.05 mg/ml tRNA, RNaseOut. The conditions noted are these: protein: recombinant; label: 32P (alpha-32P UTP, internal). Background: In EMSA bound probe runs differently from free probe, usually more slowly.
PTBP1, sequence (P26599 whole entry): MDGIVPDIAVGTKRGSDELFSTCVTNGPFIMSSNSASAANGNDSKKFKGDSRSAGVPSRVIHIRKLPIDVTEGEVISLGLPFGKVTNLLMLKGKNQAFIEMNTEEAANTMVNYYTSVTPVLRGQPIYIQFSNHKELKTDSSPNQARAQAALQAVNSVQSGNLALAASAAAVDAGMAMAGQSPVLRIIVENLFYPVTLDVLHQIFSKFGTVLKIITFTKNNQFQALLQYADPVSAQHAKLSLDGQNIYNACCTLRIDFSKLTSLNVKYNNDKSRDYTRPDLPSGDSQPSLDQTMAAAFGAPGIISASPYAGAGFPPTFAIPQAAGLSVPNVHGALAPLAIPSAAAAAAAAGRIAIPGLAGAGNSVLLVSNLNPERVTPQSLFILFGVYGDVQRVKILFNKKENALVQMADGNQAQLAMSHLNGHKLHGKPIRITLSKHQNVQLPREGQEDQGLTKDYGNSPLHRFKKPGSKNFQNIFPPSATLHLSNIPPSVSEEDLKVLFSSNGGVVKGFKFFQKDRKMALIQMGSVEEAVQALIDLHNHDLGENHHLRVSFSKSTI

B1: probe 10 (ssRNA)
RNA: GUGAGGGCUCUUUCUUCGUGGGACCGUAGAUAGGUAGCUGCUGCUGGUCUCACACUGUUCUCCCUACAG
Turning to B1, the Kd was 73 nM.
